Data: paper PMC6686228, “Contribution of Cytidine Deaminase to Thymidylate Biosynthesis in Trypanosoma brucei: Intracellular Localization and Properties of the Enzyme” (mSphere, 2019)

Key:
[1] = molecular target: Trypanosoma brucei cytidine deaminase (recombinant His tag fusion protein) (Trypanosoma brucei brucei (427 strain)); test: SEC; gel filtration of purified recombinant TbCDA on Superdex 200, 50 mM phosphate buffer (pH 7.4) plus 150 mM NaCl, calibrated with molecular weight markers; 500 ul injected
purified protein [2] = substrate: Nc1ccn([C@@H]2O[C@H](CO)[C@@H](O)[C@H]2O)c(=O)n1; test: purified protein; type: biochemical, Trypanosoma brucei; conditions: 50 mM Tris-HCl pH 7.5, 1 mM DTT, 0.125 μM enzyme
purified protein [3] = substrate: Cc1cn([C@H]2C[C@H](O)[C@@H](CO)O2)c(=O)nc1N; test: purified protein; type: biochemical, Trypanosoma brucei; conditions: 50 mM Tris-HCl pH 7.5, 1 mM DTT, 0.125 μM enzyme
purified protein [4] = substrate: Nc1ccn([C@H]2C[C@H](O)[C@@H](CO)O2)c(=O)n1; test: purified protein; type: biochemical, Trypanosoma brucei; conditions: 50 mM Tris-HCl pH 7.5, 1 mM DTT, 0.125 μM enzyme

“Trypanosoma brucei cytidine deaminase (recombinant His tag fusion protein) (enzyme)” gave a stoichiometry N [1] of 4.

B1: TbCDA (Trypanosoma brucei brucei TREU927) (protein)
chain: MQCSSLKTGCLKLLSQLPEGLQQAGRTAVSAHQRSYCPYSNFAVGAALLHDDGKVTSGCNYETCVYKGTCAEACAIVKANMDGYRTAQAVAIYGRSVLPTAAAAAADATVPPCGFCRQLLAEVADLSGNMNDFLVVLVTFDQEHARLFRLSELLPQPFGPSSIGMDVAALATGEHSRCPGTF
B1 showed a Km (purified protein [2]) of 199.5 ± 9.0 µM, a Vmax (purified protein [2]) of 126 µmol/min/mg and a kcat (purified protein [2]) of 44.8 ± 1.2 s⁻¹. It also gave a kcat/Km (purified protein [2]) of 225000 M⁻¹ s⁻¹, a Km (purified protein [3]) of 24.5 ± 3.3 µM and a Vmax (purified protein [3]) of 5.9 µmol/min/mg. The kcat (purified protein [3]) was 2.09 ± 0.08 s⁻¹, the kcat/Km (purified protein [3]) was 85000 M⁻¹ s⁻¹ and the Km (purified protein [4]) was 52.3 ± 4.5 µM. It also gave a Vmax (purified protein [4]) of 34.9 µmol/min/mg, a kcat (purified protein [4]) of 12.4 ± 0.293 s⁻¹ and a kcat/Km (purified protein [4]) of 238000 M⁻¹ s⁻¹.
